# In the RNAGym collection of RNA variant scans (doi:10.1073/pnas.2313332121):
# Variants at the floor of the assay were thinned out.
# B1: TPR 5TU (parent)
# chain: GGAUCUUCUCGAUCUAACAAAAAAGACAAAUCUGCCACAAAGCUUGAGAGCAUCUUCGGAUGCAGAGGCGGCAGCCUUCGGUGGCGCGAUAGCGCCAACGUUCUCAACUAUGACACGCAAAACGCGUGCUCCGUUGAAUGGAGUUUAUCAUG
# Variants of: B1
# Experiment: polymerase ribozyme fitness, log enrichment relative to wild type (log ratio); higher = more active; in vitro selection for triplet polymerase activity
# In short: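 Streptavidin-bead capture of gel-excised extended constructs, followed by RT-PCR, closed a single triplicate in vitro selection round. That round began by annealing PCR-built, transcribed mutant libraries of each subunit of a heterodimeric triplet polymerase ribozyme with a biotinylated primer, the partner subunit and triplets, then incubating them frozen at −7 °C. After Illumina sequencing of inputs and outputs, genotypes needed ≥10 input reads and ≥1 read per output. Fitness is the base-2 logarithm of genotype enrichment over wild-type enrichment, using inverse-variance-weighted replicate averages.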
row,Variant,polymerase ribozyme fitness (log ratio)
1,GGAUCUUCUCGAUCUAACAAAAAAGACAAAUCUGCCACAAAGCUUGAGAGCAUCGUCGGAUGCAGAGGCGGCAGCCUUCGGAGUCGCGAUAGCGCCAACGUCCUCAACUAUGACACGCAAAACGCGUGCUCCGUUGAAUGGAGUUUAUCAUG [U55G U82A G84U U102C],-3.21
2,GGAUCUUCUCGAUCUAACAAAAAAGACAAAUCUGCCACAAAGCUUGAGAGCAUCGUCGGAUGCAGAGGCGGCAGCCUUCGGUGGCGCGAGAGCGCCAACGUUCUCAACUAUGACACGCAAAAGGCGUGCUCCGAUGAAUGGAGUUUAUCAUG [U55G U90G C123G U134A],≤ -4.2
3,GGAUCUUCUCGAUCUAACAAAAAAGACAAAUCUGCCACAAAGCUUGAGAGCAUCUACGGAUGCAGAGGCGGCAGCCUUCGGUGGCGCGAUAGCGCCAACGUUCUCGACUAUGACACGCAAAACGCGUGCUCCGUUGAAUGGAGUUUAUCAUG [U56A A106G],-0.585
4,GGAUCUUCUCGAUCUAACAAAAAAGACAAAUCUGCCACAAAGCUUGAGAGCAUCGUCGGAUGCAGAGGCGGCAGCCUUCGGUGGCGCUAUAGCACCAACGUUCUCAACUAUGACACGCAAAACAGAUGCUCCGUUGAAUGGUGUUUAUCAUG [U55G G88U G94A G124A C125G G126A A142U],≤ -4.2
5,GGAUCUUCUCGAUCUAACAAAAAAGACAAAUCUGCCACAAAGCUUGAGAGCAUCGUCGGAUGCAGAGGCGGCAGCCUUCGGUGGCGCGAUAUCGCCAACGUUCUCAACUAUGACACACAAUUCGCGUGCUCCGUUGAAUGGAGUUUAUCAGG [U55G G92U G117A A121U A122U U151G],≤ -4.2
6,GGAUCUUCUCGAUCUAACAAAAAAGACAAAUCUGCCACAAAGCUUGAGAGCAUCGACGGAUGCAGAGGCGGCAGCCUUCGGAGGCGCGAUAGCGCCAACGUUCUCAACUAUGACACGCAAAACGCGUGCUCCGUUGAAUGGAGUAUAUCAUG [U55G U56A U82A U145A],-1.23
7,GGAUCUUCUCGAUCUAACAAAAAAGACAAAUCUGCCACAAAGCUUGAGAGCAUCGUCUGAUCCAGAGGCGGCAGCCUUCGGUGGUGCGAUAGCGCCAACGUUCUCAACUAUGACACGCAAAACGCGUGCUCCGUUGGAUGGAGUUUAUCAUG [U55G G58U G62C C85U A137G],-3.31
8,GGAUCUUCUCGAUCUAACAAAAAAGACAAAUCUGCCACAAAGCUUGAGAGCAUCGUCGUAUGCAGAGGCGGCAGCCUUCGGUGGCGCGAUAGCGCCAACGUUCUCAACUAUGACACGCAAAACGCGCGCUCCGUUGAAUGGAGUUUAUCAUG [U55G G59U U127C],-2.75
9,GGAUCUUCUCGAUCUAACAAAAAAGACAAAUCUGCCACAAAGCUUGAGAGCAUCGUCGGAUGCAGAGGCGGCAGCCUUCGGUGCCGCGAUAGCGCCAACGUUCUCAGCUAUGACACGCAAAACGCGUGCUCCGUUGAAUGGCGUUUAUCAUG [U55G G84C A107G A142C],≤ -4.2
10,GGAUCUUCUCGAUCUAACAAAAAAGACAAAUCUGCCACAAAGCUUGAGAGCAUCGUCGGAUGCAGAGGCGGCAGCCUUCGGUGACGCGAUAGCGCCAACGUUCUCAACUAUGACACGCAAAACGCGUGCUCCGUUGAAUGGAGUUUAUCAUG [U55G G84A],-1.68
11,GGAUCUUCUCGAUCUAACAAAAAAGACAAAUCUGCCACAAAGCUUGAGAGCAUCGUCGGAUGCAGAGGCGGCAGCCUUCGGUGGCUCGAUAGCGCCAACGUUCUCAACUAUGACACGCAAAACGCGUGCUCCGUUGAAUGGAGUAUAUCAUG [U55G G86U U145A],-0.475
12,GGAUCUUCUCGAUCUAACAAAAAAGACAAAUCUGCCACAAAGCUUGAGAGCAUCUACGGAUGCAGAGGCGGCAGCCUUCGGUGGCGCGAUAGCGCCAACGUUCUCAACUAUGACACGCAAAACGCGUGCUCCGUUGAAUGGAGUUUAUCAUG [U56A],-0.324
13,GGAUCUUCUCGAUCUAACAAAAAAGACAAAUCUGCCACAAAGCUUGAGAGCAUCGUCGGAUGCAGAGGCGGCAGCCUUCGGUGGCGCGAUAGCACCAACGUUCUCAACUAUGACGCGCAAAUCGCGUGCUCCGCUGAACGGAAUUUACCAUG [U55G G94A A115G A122U U134C U139C G143A U148C],≤ -4.2
14,GGAUCUUCUCGAUCUAACAAAAAAGACAAAUCUGCCACAAAGCUUGAGAGCAUCUACGGAUGCAGAGGCGGCAGCCUUCGGUGGCGCGAUAGCGCCAACGUUCUCAACUAUGACACGCAAAACGCGUGCUCCGUUGCAUGGAGUUUAUCAUG [U56A A137C],-3.11
15,GGAUCUUCUCGAUCUAACAAAAAAGACAAAUCUGCCACAAAGCUUGAGAGCAUCGUCGGAUGCAGAGGCGGCAGCCUUCGGUGGCGCGAUAGCGCCAACGUUCUCAACUAUGACACGCAAAACGCGUGCUCCGUUGAAUGGAGUUUACCAUG [U55G U148C],-2.46
16,GGAUCUUCUCGAUCUAACAAAAAAGACAAAUCUGCCACAAAGCUUGAGAGCAUCUACGGAUGCAGAGGCGGCUGCAUUCGGUGGCGCGAUAGCGCCUACGUUCUCAACUAUGACACGCAAAACGCGUGCUCCGUUGAAUGGAGUUUAUCAUG [U56A A73U C76A A97U],≤ -4.2
17,GGAUCUUCUCGAUCUAACAAAAAAGACAAAUCUGCCACAAAGCUUGAGAGCAUCGUCGGAUGCAGAGGCGGCAACCUUCGGUGGUGCGAUAGCGCCAACGUUCUCAACUGUGACACGCAAAACGCGUGCUCCGUUGAAUGGAGUUUAUCAUG [U55G G74A C85U A110G],≤ -4.2
18,GGAUCUUCUCGAUCUAACAAAAAAGACAAAUCUGCCACAAAGCUUGAGAGCAUCUACGGAUGCAGAGGCGGCAGCCUUCGGUGGCGCGAUAGCGCCAACGUUCUCAACUAUGACACGCAACACGCGUGCUCCGUUGAAUGGAGUUUAUGAUG [U56A A121C C149G],-3.14
19,GGAUCUUCUCGAUCUAACAAAAAAGACAAAUCUGCCACAAAGCUUGAGAGCAUCGUCGGAUGCAGAGGCGGCAGCCUUCGGUUGUGCGUUAGCGACAACGUUCUCAACUAUGACACGCAAAACGCGUGCUCCGUUGAAUGGAGUUUAUCAUG [U55G G83U C85U A89U C95A],-3.88

row,Variant,polymerase ribozyme fitness (log ratio)
1,GGAUCUUCUCGAUCUAACAAAAAAGACAAAUCUGCCACAAAGCUUGAGAGCAUCGUCGGAUGCAGAGGCGGCAGCCUUCGGUGGCGCGAUAGCACCAUCGUUCUCAACUAUGACACGCAAAACGCGUGCUCCGUUGAAUGGAGUUUAUCAUG [U55G G94A A98U],-0.256
2,GGAUCUUCUCGAUCUAACAAAAAAGACAAAUCUGCCACAAAGCUUGAGAGCAUCUACGGGUGCAGAGGCGGCAGCCUUGGGUGGCGCGAUAGCGCCAACGUUCUCAACUAUGACACGCCAUACGCGUGCUCCGUUGAAUGGAGUUUAUCAUG [U56A A60G C79G A119C A121U],-3.78
3,GGAUCUUCUCGAUCUAACAAAAAAGACAAAUCUGCCACAAAGCUUGAGAGCAUCGUCGGAAGCAGAGGCGGCAGCCUUCGGUGGCGCGAUAGCGCCAACGUUCUCAACUAUGACACGCAAAACGCGUGCUCCGUUGAAUGGAGUUUAUCAUG [U55G U61A],-3.22
4,GGAUCUUCUCGAUCUAACAAAAAAGACAAAUCUGCCACAAAGCUUGAGAGCAUCGUCGGAUGCAGAGGCGACAGCCUUCGGUGGCGGGAUAGCGCCAACGUUCUCAACUAUCACACGCAAAACGCGUGCUCCGUUGAAUGGAGUUUAUCAUG [U55G G71A C87G G112C],≤ -4.2
5,GGAUCUUCUCGAUCUAACAAAAAAGACAAAUCUGCCACAAAGCUUGAGAGCAUCUACGGAUGCAGAGGAGGCAGCCUUUGGUGGCGCGAUAGGGCCAACGUUCUCAACUAUGACACGCAAAACGCGUGCUCCGUUGAAUGGAGUUUAUCAAG [U56A C69A C79U C93G U151A],≤ -4.2
6,GGAUCUUCUCGAUCUAACAAAAAAGACAAAUCUGCCACAAAGCUUGAGAGCAUCGAGGGAUGCAGAGGCGGCAGCAUUCGGUGGCGCGAUAGAGCCAACGUUCUCAACUAUGACACGCAAAACGCGUGCUCCGUUGAAUGGAGUUUAUCAUG [U55G U56A C57G C76A C93A],-3.7
7,GGAUCUUCUCGAUCUAACAAAAAAGACAAAUCUGCCACAAAGCUUGAGAGCAUCGUCGGAUGCAGAGGCGGCAGCCUUCGGUGGCUCGAUAGCGUCAACGUUCUCAACUAUGACACGCAAAACGCGUGCUCCGUUGAAUGGAGUUUAUCAUG [U55G G86U C95U],-0.739
8,GGAUCUUCUCGAUCUAACAAAAAAGACAAAUCUGCCACAAAGCUUGAGAGCAUCUAUGGAUGUAGAGGCGGCAGCCUUCGGUGGCGCGAUAGCGCCAACGAUCCCAAUUAUGACACGCAAAACGCGUGCUCCGUUGAAUGGAGUUUAUCAUG [U56A C57U C63U U101A U104C C108U],≤ -4.2
9,GGAUCUUCUCGAUCUAACAAAAAAGACAAAUCUGCCACAAAGCUUGAGAGCAUCGUCCGAUGCAGAGGCGGCAGCCUUCGGUGGCGCGAUAGCGCCAACGUUCUCAACUAUGACACGCAAAACGCGUGCUCCGUUGAAUGGAGGUUAUCAUG [U55G G58C U144G],-0.023
10,GGAUCUUCUCGAUCUAACAAAAAAGACAAAUCUGCCACAAAGCUUGAGAGCAUCUACGGAUGCAGAGGCGGCAGGCUUCGGUGGCGCGAUAGCACCAACGUUCUUAACUAUGACACGCAAAACGCGUGCUCCUUUGAAUGGAGUUUAUCAUG [U56A C75G G94A C105U G133U],-4.17
11,GGAUCUUCUCGAUCUAACAAAAAAGACAAAUCUGCCACAAAGCUUGAGAGCAUCUACGGAUGCAGAGGCGGCAGUCUUCGGUGGCGCGAUAGCGCCAACGUUCUCAACUAUGACACGCAAAACGCGUGCUCCGUUGAAUGGAGUUUAUCAUG [U56A C75U],-0.839
12,GGAUCUUCUCGAUCUAACAAAAAAGACAAAUCUGCCACAAAGCUUGAGAGCAUCGUCGUAUGCAGACGCGGCAGCCAUCGGUGGCGCGAUAGCGCGAACGUUCUCAACUAUGACACGCCAAACGCGUGCUCCGUUGAAAGGAGUUUAGCAUG [U55G G59U G67C U77A C96G A119C U139A U148G],≤ -4.2
13,GGAUCUUCUCGAUCUAACAAAAAAGACAAAUCUGCCACAAAGCUUGAGAGCAUCUACGGAUGCAGAGGCGGCUGCCUUCGGUGGCGCGAUAGCGCCAACGUUCUCAACUAUGACACGCAAAACGCGUGCUCCGUUGAAUAGAGUUUAUCAUG [U56A A73U G140A],-4.06
14,GGAUCUUCUCGAUCUAACAAAAAAGACAAAUCUGCCACAAAGCUUGAGAGCAUCGUCGGAUGCAGAGGCGGCAGCCUUCGGUGGCGCGAUAGCGCCAACGUUCACAACUAUGACACGCAAAGCGCGUGCUCCGUUGCAUGGAGUUUAUCAUG [U55G U104A A122G A137C],≤ -4.2
15,GGAUCUUCUCGAUCUAACAAAAAAGACAAAUCUGCCACAAAGCUUGAGAGCAUCUACGGAUGCAGAGGCGGCAGCCUUCGGUGGCGCGAUAGCGCCAACGUUCUCCACGAUGAUACGAAAAACGCGUGCUCCGUUGAAUGGAGUUUAUCAUG [U56A A106C U109G C114U C118A],≤ -4.2
16,GGAUCUUCUCGAUCUAACAAAAAAGACAAAUCUGCCACAAAGCUUGAGAGCAUCGUCGGAUGCAGAGGCGGCAGCCUUCGGUGGCGCUAUAGCGCCAACGUUCUCAACUAUGACACGCAAAACGCGUGCUCCGUUGAAUGGAGUUUAUCAUG [U55G G88U],-4.02
17,GGAUCUUCUCGAUCUAACAAAAAAGACAAAUCUGCCACAAAGCUUGAGAGCAUCGUCCGAUGCAGAGGCGGCAGCCUUCGGUGGCGCGAUAGCGCCAACGUUCUCAACUAUGACAUGCAAAACGCGUGCUCCGUUGAAUGGAAUUUAUCAUG [U55G G58C C116U G143A],-1.24
18,GGAUCUUCUCGAUCUAACAAAAAAGACAAAUCUGCCACAAAGCUUGAGAGCAUCGACGCAUGCAGAGGCGGCAGCCUUCGGUGGCGCGAUAGCGCCAAGGUUCUCAACUAUGACACGCAAAACGCGUGCUCCGUUGAAUGGGGUUUAUCAUG [U55G U56A G59C C99G A142G],-2.78
19,GGAUCUUCUCGAUCUAACAAAAAAGACAAAUCUGCCACAAAGCUUGAGAGCAUCUACGGAUGCAGAGGCGGCAGCCUUCGGUGGCGCGCUAGCGCCAACGUUCUCAACUAUGACACGCAAAACGCGUGCUCCGUUGAAUGGAGUUUAUCAUG [U56A A89C],-0.735
